Measured values published in PMC6160142, “Structural and biochemical characterization of the Cutibacterium acnes exo-β-1,4-mannosidase that targets the N-glycan core of host glycoproteins” (PLoS ONE, 2018).

How the values were obtained:
[1] = tested on: O=[N+]([O-])c1ccc(O[C@@H]2O[C@H](CO)[C@@H](O)[C@H](O)[C@@H]2O)cc1; test: purified protein; settings: stated pHopt and Topt (pH 6.5, 60 °C; methods for pNP sugars give 50 mM sodium phosphate pH 6.0, 50 °C, 10 min); 0.5 to 20 mM substrate
[2] = target: CaMan5_18, exo-β-1,4-mannosidase (GH5 subfamily 18) from Cutibacterium acnes strain 266 (Cutibacterium acnes strain 266); test: SEC; HiLoad 16/60 Superdex 200 prep grade in 25 mM K2HPO4 pH 7.2, 150 mM NaCl, calibrated with five protein standards

Substance: CaMan5_18 (Cutibacterium acnes subsp. acnes)
- Km [1]: 10.4 mM
- kcat [1]: 7.8 s⁻¹
- kcat/Km [1]: 750 M⁻¹ s⁻¹

Substance: CaMan5_18, exo-β-1,4-mannosidase (GH5 subfamily 18) from Cutibacterium acnes strain 266 (enzyme)
- stoichiometry N [2]: 2
